From patent publication US20250223319A1

Biological target: F HIV-clamp (respiratory syncytial virus)
Test: capture ELISA, 101F coat and MPE8 detection; antigen yield estimate, control

MPE8 (antibody)
yield by MPE8 binding ELISA: 10 mg/L
